Consider 20 molecules from US20170044259A1 (CYTOMX THERAPEUTICS, published 2017).

Positions count from the first letter of the chain named. Names and notes keep the numbering of the source.

The labels stand for the following.
B1: PD-1 1.5 PD006 2001 (antibody, human IgG4 S228P, kappa)
heavy: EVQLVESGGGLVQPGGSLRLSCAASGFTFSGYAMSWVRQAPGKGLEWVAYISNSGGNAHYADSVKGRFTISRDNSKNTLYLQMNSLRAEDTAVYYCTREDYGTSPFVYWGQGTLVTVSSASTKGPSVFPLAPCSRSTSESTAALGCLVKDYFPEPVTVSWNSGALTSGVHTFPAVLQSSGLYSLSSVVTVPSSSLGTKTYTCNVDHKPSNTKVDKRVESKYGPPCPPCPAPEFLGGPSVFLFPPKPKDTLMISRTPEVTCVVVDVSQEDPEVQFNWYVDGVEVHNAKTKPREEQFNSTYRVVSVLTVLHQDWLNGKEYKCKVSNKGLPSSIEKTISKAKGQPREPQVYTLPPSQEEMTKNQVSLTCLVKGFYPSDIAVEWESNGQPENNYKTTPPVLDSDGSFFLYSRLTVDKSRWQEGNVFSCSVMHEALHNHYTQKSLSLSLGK
light: QGQSGQGAPRCYMFASYCKSQYGGGSSGGSISSGLLSGRSDNHGGGSDIQLTQSPSSLSASVGDRVTITCRASESVDAYGISFMNWFQQKPGKAPKLLIYAASNQGSGVPSRFSGSGSGTDFTLTISSMQPEDFATYYCQQSKDVPWTFGQGTKLEIKRTVAAPSVFIFPPSDEQLKSGTASVVCLLNNFYPREAKVQWKVDNALQSGNSQESVTEQDSKDSTYSLSSTLTLSKADYEKHKVYACEVTHQGLSSPVTKSFNRGEC
B2: PD-1 1.5 PD019 2001 (antibody, human IgG4 S228P, kappa)
heavy: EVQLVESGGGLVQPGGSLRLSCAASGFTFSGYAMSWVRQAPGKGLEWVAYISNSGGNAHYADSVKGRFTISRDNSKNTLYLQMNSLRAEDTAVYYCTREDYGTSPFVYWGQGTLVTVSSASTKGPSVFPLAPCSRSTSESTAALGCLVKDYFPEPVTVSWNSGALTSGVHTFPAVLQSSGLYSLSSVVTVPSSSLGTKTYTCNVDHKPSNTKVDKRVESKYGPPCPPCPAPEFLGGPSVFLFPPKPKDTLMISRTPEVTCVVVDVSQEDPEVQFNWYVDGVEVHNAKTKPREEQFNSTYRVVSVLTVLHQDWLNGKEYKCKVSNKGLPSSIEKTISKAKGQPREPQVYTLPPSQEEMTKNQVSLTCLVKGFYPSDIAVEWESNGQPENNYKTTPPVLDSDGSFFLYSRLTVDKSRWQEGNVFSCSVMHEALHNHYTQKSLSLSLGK
light: QGQSGQGPCDQNPYFYPYVCHAGGGSSGGSISSGLLSGRSDNHGGGSDIQLTQSPSSLSASVGDRVTITCRASESVDAYGISFMNWFQQKPGKAPKLLIYAASNQGSGVPSRFSGSGSGTDFTLTISSMQPEDFATYYCQQSKDVPWTFGQGTKLEIKRTVAAPSVFIFPPSDEQLKSGTASVVCLLNNFYPREAKVQWKVDNALQSGNSQESVTEQDSKDSTYSLSSTLTLSKADYEKHKVYACEVTHQGLSSPVTKSFNRGEC
notes: also called PD-19
B3: PD-1 1.5 PD009 2001 (antibody, human IgG4 S228P, kappa)
heavy: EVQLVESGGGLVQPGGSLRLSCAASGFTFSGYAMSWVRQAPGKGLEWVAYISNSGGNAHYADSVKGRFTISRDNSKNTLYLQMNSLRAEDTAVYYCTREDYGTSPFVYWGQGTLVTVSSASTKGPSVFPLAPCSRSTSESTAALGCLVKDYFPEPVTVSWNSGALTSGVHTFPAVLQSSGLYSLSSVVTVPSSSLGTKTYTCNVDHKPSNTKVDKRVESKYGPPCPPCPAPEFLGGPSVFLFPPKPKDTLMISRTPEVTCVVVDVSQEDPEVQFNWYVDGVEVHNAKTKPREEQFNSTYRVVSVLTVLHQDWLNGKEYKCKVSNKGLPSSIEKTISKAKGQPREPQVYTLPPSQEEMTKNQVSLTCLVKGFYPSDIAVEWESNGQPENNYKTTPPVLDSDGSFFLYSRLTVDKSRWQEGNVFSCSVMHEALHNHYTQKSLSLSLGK
light: QGQSGQGAPRTCYTYQCSSFYTGGGSSGGSISSGLLSGRSDNHGGGSDIQLTQSPSSLSASVGDRVTITCRASESVDAYGISFMNWFQQKPGKAPKLLIYAASNQGSGVPSRFSGSGSGTDFTLTISSMQPEDFATYYCQQSKDVPWTFGQGTKLEIKRTVAAPSVFIFPPSDEQLKSGTASVVCLLNNFYPREAKVQWKVDNALQSGNSQESVTEQDSKDSTYSLSSTLTLSKADYEKHKVYACEVTHQGLSSPVTKSFNRGEC
B4: PD-1 1.5 PD012 2001 (antibody, human IgG4 S228P, kappa)
heavy: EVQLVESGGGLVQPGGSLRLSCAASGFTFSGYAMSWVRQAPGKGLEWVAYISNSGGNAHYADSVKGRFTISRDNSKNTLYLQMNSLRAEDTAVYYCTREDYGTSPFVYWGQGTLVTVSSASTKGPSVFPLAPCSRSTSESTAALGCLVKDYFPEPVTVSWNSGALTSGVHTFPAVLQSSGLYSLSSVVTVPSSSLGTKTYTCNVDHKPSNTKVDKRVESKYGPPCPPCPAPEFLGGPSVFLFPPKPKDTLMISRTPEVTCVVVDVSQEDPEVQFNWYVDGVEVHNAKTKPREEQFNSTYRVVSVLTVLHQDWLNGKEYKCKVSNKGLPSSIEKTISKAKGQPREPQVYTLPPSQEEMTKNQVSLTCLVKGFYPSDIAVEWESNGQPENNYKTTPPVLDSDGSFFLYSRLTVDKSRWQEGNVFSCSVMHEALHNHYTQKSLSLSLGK
light: QGQSGQGNWLDCQFYSECSVYGGGGSSGGSISSGLLSGRSDNHGGGSDIQLTQSPSSLSASVGDRVTITCRASESVDAYGISFMNWFQQKPGKAPKLLIYAASNQGSGVPSRFSGSGSGTDFTLTISSMQPEDFATYYCQQSKDVPWTFGQGTKLEIKRTVAAPSVFIFPPSDEQLKSGTASVVCLLNNFYPREAKVQWKVDNALQSGNSQESVTEQDSKDSTYSLSSTLTLSKADYEKHKVYACEVTHQGLSSPVTKSFNRGEC
notes: also called PD-12
B5: m245-M5-MHC729 (antibody, V domains shown)
VH: EVQLVESGGGLVKSGGSLKLSCAHSGFSFSSYDMSWVRQTPAKRLEWVATISGGGRYTYYPDSVKGRFTISRDNAKNTLYLQMSGLRSEDTAMYYCASNYYGFDYWGQGTTLTVSS
VL: DIVMTQSHKFMSTSVGDRVSITCKASQDVGTAVAWYQQKPGQSPKLLIYWASTRHTGVPDRFTGSGSGTDFTLTISNVQSEDLADYFCQQYSSYPWTFGGGTKLEIK
notes: mouse hybridoma antibody, mIgG1/K
B6: m245-M3-MHC728 (antibody, V domains shown)
VH: EVKLVESGGGLVKPGGSLKLSCAASGFTFSNYAMSWVRQTPAKRLEWVAYISNGGGDTHYPDSLKGRFTVSRDNAKNTLYLQMSSLKSEDTAMYYCARENYGTSPFVYWGQGTLVTVSA
VL: not shown
notes: mouse hybridoma antibody, mIgG2a/K
B7: m136-M19-MHC725 (antibody, V domains shown)
VH: EVQLQQSGPELVKPGDSVKMSCKASGYTFTDYYMDWVKQSHGKSLEWIGYIYPKNGGSSYNQKFKGKATLTVDKSSSTAYMELHSLTSEDSAVYYCARKVVATDYWGQGTTLTVSS
VL: DIVMSQSPSSLAVSVGEKVTMSCKSSQSLLYSSNQKNYLAWYQQKPGQSPKLLIFWASIRESGVPDRFTGSGSGTDFTLTISSVKAEDRAVYYCQQCDSYPWTFGGGTKLEIK
notes: mouse hybridoma antibody, mIgG2b/K
B8: Bb2 (antibody, human IgG4 S228P, kappa, V domains shown)
VH: QVQLVQSGAEVKKPGASVKMSCKASGYTFTDYYMDWVRQAPGQGLEWIGYIYPKNGGSSYAQKFQGRATLTVDKSTSTAYMELSSLRSEDTAVYYCARKVVATDYWGQGTLLTVSS
VL: DIQMTQSPSSLSASVGDRVTMTCKSSQSLLYSSNQKNYLAWYQQKPGKAPKLLIFWASIRESGVPSRFSGSGSGTDFTLTISSVQPEDFATYYCQQSDSYPWTFGQGTKLEIKR
notes: humanized, full length hIgG4/hKappa
B9: A1.0 (antibody, human IgG4 S228P, kappa, V domains shown)
VH: EVQLVESGGGLVQPGGSLRLSCAASGFTFSGYAMSWVRQAPGKGLEWVAYISNSGGNAHYADSVKGRFTISRDNSKNTLYLQMNSLRAEDTAVYYCTREDYGTSPFVYWGQGTLVTVSS
VL: DIQLTQSPSSLSASVGDRVTITCRASESVDNYGISFMNWFQQKPGKAPKLLIYAASNQGSGVPSRFSGSGSGTDFTLTISSMQPEDFATYYCQQSKDVPWTFGQGTKLEIKR
notes: as for B8
B10: C1.1 (antibody, human IgG4 S228P, kappa, V domains shown)
VH: B9 VH with G31N, S54G, N57D, A58T, V64L, I70V, T97A, D100N
VL: B9 VL with A13V, V19A
notes: as for B8
B11: A1.6 (antibody, human IgG4 S228P, kappa, V domains shown)
VH: B9 VH
VL: B9 VL with N57D
notes: as for B8
B12: A1.4 (antibody, human IgG4 S228P, kappa)
heavy: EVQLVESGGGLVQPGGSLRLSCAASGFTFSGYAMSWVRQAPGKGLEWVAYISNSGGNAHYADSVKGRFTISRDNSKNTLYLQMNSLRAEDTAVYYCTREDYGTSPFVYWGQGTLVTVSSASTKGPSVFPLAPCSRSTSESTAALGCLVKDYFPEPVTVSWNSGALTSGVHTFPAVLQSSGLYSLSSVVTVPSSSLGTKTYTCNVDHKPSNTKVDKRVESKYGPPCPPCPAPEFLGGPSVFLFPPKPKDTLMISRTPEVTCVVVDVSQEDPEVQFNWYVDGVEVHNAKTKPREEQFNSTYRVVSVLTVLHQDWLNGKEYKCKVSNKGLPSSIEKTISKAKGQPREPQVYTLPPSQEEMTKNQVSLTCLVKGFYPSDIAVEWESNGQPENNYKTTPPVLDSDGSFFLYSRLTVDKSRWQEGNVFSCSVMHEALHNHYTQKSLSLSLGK
light: DIQLTQSPSSLSASVGDRVTITCRASESVDSYGISFMNWFQQKPGKAPKLLIYAASNQGSGVPSRFSGSGSGTDFTLTISSMQPEDFATYYCQQSKDVPWTFGQGTKLEIKRTVAAPSVFIFPPSDEQLKSGTASVVCLLNNFYPREAKVQWKVDNALQSGNSQESVTEQDSKDSTYSLSSTLTLSKADYEKHKVYACEVTHQGLSSPVTKSFNRGEC
notes: humanized, full length hIgG4/hKappa; also called anti-PD-1 A1.4; DyLight-650 A1.4
B13: A1.2 (antibody, human IgG4 S228P, kappa, V domains shown)
VH: B9 VH
VL: B9 VL with N31Q
notes: as for B8
B14: D4 (antibody, human IgG4 S228P, kappa, V domains shown)
VH: EVQLVESGGGLVQPGGSLRLSCAHSGFSFSSYDMSWVRQAPGKGLEWVATISGGGRYTYYADSVKGRFTISRDNSKNTLYLQMNSLRAEDTAVYYCASNYYGFDYWGQGTLLTVSS
VL: DIQMTQSPSSLSASVGDRVTITCKASQDVGTAVAWYQQKPGKAPKLLIYWASTRHTGVPSRFSGSGSGTDFTLTISSVQPEDFATYYCQQYSSYPWTFGQGTKLEIKR
notes: as for B8
B15: PD-1 1.4 PD002 2001 (antibody, human IgG4 S228P, kappa)
heavy: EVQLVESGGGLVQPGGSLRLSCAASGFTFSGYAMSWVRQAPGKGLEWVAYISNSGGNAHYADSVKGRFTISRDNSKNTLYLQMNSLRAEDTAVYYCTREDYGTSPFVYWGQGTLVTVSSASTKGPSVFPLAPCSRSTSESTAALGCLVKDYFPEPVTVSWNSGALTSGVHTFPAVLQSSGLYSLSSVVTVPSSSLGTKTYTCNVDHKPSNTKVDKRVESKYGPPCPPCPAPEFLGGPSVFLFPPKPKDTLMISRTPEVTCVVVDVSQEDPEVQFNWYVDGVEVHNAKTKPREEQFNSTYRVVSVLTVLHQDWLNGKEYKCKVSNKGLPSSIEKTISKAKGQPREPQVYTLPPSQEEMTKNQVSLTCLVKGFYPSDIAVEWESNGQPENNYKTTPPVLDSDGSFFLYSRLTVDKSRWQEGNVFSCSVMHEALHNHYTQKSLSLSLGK
light: QGQSGQGDVNCAIWYSVCTTVPGGGSSGGSISSGLLSGRSDNHGGGSDIQLTQSPSSLSASVGDRVTITCRASESVDSYGISFMNWFQQKPGKAPKLLIYAASNQGSGVPSRFSGSGSGTDFTLTISSMQPEDFATYYCQQSKDVPWTFGQGTKLEIKRTVAAPSVFIFPPSDEQLKSGTASVVCLLNNFYPREAKVQWKVDNALQSGNSQESVTEQDSKDSTYSLSSTLTLSKADYEKHKVYACEVTHQGLSSPVTKSFNRGEC
notes: also called PD02 (A1.4)
B16: PD-1 1.4 PD001 2001 (antibody, human IgG4 S228P, kappa)
heavy: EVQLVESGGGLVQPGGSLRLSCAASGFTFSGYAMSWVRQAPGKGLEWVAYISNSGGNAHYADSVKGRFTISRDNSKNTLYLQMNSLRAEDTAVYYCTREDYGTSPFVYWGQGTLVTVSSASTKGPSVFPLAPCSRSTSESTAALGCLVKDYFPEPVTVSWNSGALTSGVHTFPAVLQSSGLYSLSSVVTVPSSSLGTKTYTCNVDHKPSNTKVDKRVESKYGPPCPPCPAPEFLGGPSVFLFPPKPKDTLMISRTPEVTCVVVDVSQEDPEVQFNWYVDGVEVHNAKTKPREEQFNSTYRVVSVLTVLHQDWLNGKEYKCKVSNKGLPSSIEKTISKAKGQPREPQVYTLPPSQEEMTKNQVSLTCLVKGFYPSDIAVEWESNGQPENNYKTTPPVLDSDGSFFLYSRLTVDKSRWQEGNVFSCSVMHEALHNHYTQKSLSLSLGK
light: QGQSGQGAMSGCSWSAFCPYLAGGGSSGGSISSGLLSGRSDNHGGGSDIQLTQSPSSLSASVGDRVTITCRASESVDSYGISFMNWFQQKPGKAPKLLIYAASNQGSGVPSRFSGSGSGTDFTLTISSMQPEDFATYYCQQSKDVPWTFGQGTKLEIKRTVAAPSVFIFPPSDEQLKSGTASVVCLLNNFYPREAKVQWKVDNALQSGNSQESVTEQDSKDSTYSLSSTLTLSKADYEKHKVYACEVTHQGLSSPVTKSFNRGEC
notes: hIgG4 S228P/hK; also called PD01 (A1.4)
B17: PD-1 1.4 PD009 2001 (antibody, human IgG4 S228P, kappa)
heavy: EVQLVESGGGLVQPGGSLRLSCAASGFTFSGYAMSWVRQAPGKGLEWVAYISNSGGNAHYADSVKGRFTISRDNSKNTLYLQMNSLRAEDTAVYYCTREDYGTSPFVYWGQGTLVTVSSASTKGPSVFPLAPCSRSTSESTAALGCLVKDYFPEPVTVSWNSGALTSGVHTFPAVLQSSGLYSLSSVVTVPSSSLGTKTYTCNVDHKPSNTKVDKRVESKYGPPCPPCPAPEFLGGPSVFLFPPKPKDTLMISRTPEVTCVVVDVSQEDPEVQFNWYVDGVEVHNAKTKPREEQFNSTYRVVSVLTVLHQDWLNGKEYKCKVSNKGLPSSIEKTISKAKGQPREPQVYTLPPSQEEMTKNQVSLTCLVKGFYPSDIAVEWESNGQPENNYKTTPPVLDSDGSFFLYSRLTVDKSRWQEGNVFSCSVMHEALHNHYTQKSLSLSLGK
light: B3 light with A78S
notes: also called PD09 (A1.4)
B18: PD-1 1.4 PD003 2001 (antibody, human IgG4 S228P, kappa)
heavy: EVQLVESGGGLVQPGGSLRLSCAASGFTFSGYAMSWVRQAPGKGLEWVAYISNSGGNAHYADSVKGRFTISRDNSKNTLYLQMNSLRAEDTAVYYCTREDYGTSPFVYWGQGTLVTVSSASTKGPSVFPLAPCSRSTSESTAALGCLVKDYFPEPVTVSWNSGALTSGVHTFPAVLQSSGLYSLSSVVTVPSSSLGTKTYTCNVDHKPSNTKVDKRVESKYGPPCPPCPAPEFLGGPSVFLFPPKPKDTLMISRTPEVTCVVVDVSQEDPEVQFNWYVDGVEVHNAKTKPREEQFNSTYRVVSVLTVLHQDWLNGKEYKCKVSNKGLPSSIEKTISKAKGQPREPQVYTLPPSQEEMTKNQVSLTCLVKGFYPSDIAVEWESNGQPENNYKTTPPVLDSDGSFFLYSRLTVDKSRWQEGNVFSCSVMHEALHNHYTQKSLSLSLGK
light: QGQSGQGLVCPLYALSSGVCMGGGGSSGGSISSGLLSGRSDNHGGGSDIQLTQSPSSLSASVGDRVTITCRASESVDSYGISFMNWFQQKPGKAPKLLIYAASNQGSGVPSRFSGSGSGTDFTLTISSMQPEDFATYYCQQSKDVPWTFGQGTKLEIKRTVAAPSVFIFPPSDEQLKSGTASVVCLLNNFYPREAKVQWKVDNALQSGNSQESVTEQDSKDSTYSLSSTLTLSKADYEKHKVYACEVTHQGLSSPVTKSFNRGEC
notes: also called PD03 (A1.4)
B19: PD-1 1.4 PD008 2001 (antibody, human IgG4 S228P, kappa)
heavy: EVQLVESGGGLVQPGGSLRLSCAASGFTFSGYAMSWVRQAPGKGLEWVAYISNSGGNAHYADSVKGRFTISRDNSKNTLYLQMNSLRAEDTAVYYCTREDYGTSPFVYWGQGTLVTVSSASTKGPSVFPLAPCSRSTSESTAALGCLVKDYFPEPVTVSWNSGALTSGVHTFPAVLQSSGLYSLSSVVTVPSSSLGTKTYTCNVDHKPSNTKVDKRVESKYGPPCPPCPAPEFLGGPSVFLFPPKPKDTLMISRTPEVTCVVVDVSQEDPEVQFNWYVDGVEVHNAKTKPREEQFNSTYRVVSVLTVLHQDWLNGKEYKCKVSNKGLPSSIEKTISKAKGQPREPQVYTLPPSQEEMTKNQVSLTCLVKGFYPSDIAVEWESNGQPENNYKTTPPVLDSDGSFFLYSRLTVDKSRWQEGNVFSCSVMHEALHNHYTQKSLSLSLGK
light: B18 light with L8E, V9T, P11N, L12Q, A14E, L15R, V19L, M21F, G22A
notes: also called PD08 (A1.4)
B20: PD-1 1.4 PD010 2001 (antibody, human IgG4 S228P, kappa)
heavy: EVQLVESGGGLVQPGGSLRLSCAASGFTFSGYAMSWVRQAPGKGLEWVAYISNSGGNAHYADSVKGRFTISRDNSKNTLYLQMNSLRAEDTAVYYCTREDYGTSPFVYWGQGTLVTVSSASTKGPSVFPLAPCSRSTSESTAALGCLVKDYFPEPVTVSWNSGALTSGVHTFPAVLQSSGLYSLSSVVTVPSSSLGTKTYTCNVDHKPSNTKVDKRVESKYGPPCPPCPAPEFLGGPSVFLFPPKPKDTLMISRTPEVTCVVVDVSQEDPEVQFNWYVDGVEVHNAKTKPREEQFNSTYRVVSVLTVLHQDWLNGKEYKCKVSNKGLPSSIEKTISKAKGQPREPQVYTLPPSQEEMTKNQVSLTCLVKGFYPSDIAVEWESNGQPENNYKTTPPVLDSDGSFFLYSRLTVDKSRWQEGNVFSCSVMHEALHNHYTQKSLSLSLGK
light: B18 light with L8G, V9L, P11S, L12W, A14L, L15S, V19L, M21V, G22D
notes: also called PD-10 (A1.4); PD10 (A1.4)

For the first assay, the target named is T1, human PD-1-Fc (R and D systems, Minneapolis, Minn.) (human, UniProt Q15116 25-167).
T1 construct: bought; also called hPD-1-Fc; hPD-1; not shown: Fc part of the bought fusion
T1 sequence (Q15116 25-167 limits assumed): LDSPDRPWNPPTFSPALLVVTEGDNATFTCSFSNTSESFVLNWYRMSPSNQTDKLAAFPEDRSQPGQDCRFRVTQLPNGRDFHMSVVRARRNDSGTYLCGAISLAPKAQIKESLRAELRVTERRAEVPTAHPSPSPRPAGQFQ
In words: plate ELISA on human PD-1-Fc; apparent KD.
B1: the Kd was found to be 71 nM.

On to B2, for which the Kd came to 93 nM.

Turning to B3, the Kd came out at 10 nM.

Regarding B4, the Kd was 25 nM.

The next assay deals with T1, human PD-1-Fc (R and D systems, …). Kind of assay: plate ELISA on human PD-1-Fc; reference A1.5. (ELISA stands for enzyme-linked immunosorbent assay.)
As to B1, the “ME (masking efficiency, Kd of the activatable antibody divided by Kd of the parental antibody)” value stood at 30.

For the molecule B2, the “ME (masking efficiency, Kd of the activatable antibody divided by Kd of the parental antibody)” value turned out to be 30.

Turning to B3, the “ME (masking efficiency, Kd of the activatable antibody divided by Kd of the parental antibody)” value was 2.

For the molecule B4, the “ME (masking efficiency, Kd of the activatable antibody divided by Kd of the parental antibody)” value was 10.

The next assay has the same target. In words: plate ELISA on adsorbed human PD-1-Fc, single site saturation fit.
In turn, B5 came in with a Kd of 0.34 nM.

For the molecule B6, the Kd came to 0.22 nM.

Turning to B7, the Kd came out at 0.23 nM.

The target is the same in another assay. Kind of assay: plate ELISA on human PD-1-Fc.
For B8, the binding result was “binds”.

For B9, the binding result is recorded as “binds”.

For the molecule B10, the binding result is reported as “binds”.

In the case of B11, the binding result was “binds”.

In the case of B12, the binding result is “binds”.

B13: the binding result is reported as “binds”.

Take B14: the binding result was “binds”.

The target is the same in a further assay. In words: plate ELISA on human PD-1-Fc; reference A1.5. The source holds these as a separate data set.
With B1, the “Masking Efficiency” value worked out at 39.

With B2, the “Masking Efficiency” value came out at 52.

For B3, the “Masking Efficiency” value is 6.

As for B4, the “Masking Efficiency” value is 14.

A further assay has the same target. In words: plate ELISA on human PD-1-Fc; reference A1.4.
Regarding B15, the “ME (masking efficiency, Kd of the activatable antibody divided by Kd of the parental antibody)” value stood at 18.

B16: the “ME (masking efficiency, Kd of the activatable antibody divided by Kd of the parental antibody)” value came to 25.

In the case of B17, the “ME (masking efficiency, Kd of the activatable antibody divided by Kd of the parental antibody)” value stood at 2.

B18: the “ME (masking efficiency, Kd of the activatable antibody divided by Kd of the parental antibody)” value was found to be 5.

For the molecule B19, the “ME (masking efficiency, Kd of the activatable antibody divided by Kd of the parental antibody)” value is 13.

Consider B20, for which the “ME (masking efficiency, Kd of the activatable antibody divided by Kd of the parental antibody)” value was found to be 13.
